These results are taken from publication PMC8585875.

Experiment [1] concerns the target H6-Rap80(1-137)-7A-Linker (human) (UniProt Q96RL1). Description: pull-down; H6-Rap80(1-137)-7A-Linker on Ni-NTA agarose; 3.5 µM hybrid chain in 50 µl; 50 mM TRIS pH 7.5, 150 mM NaCl, 2 mM TCEP, 0.1% NP-40; 1 h at 4 °C; Coomassie SDS-PAGE, densitometry normalised to Rap80.
The target in experiment [2] is H6-Rap80(35-124)-S18C-C70S-C121S-7A-Linker, Atto488-labelled (human) (UniProt Q96RL1). Description: fluorescence polarisation; fluorescence anisotropy; hybrid chain titrated to 300 nM Atto488-labelled Rap80(35-124); 20 mM Tris pH 6.8, 100 mM NaCl, 4 mM DTT; single-site binding model.

In turn, “K63-diUb-K21-SUMO2 hybrid chain (Srt2A/Srt5M-generated) (from UniProt P0CG48 1-76; P0CG48 1-76; P61956 1-95) (complex)” yielded a fold affinity against the linearly linked hybrid chain (densitometry of the pull-down) in experiment [1] of 2 fold. Broadly, the Kd is the equilibrium constant for the complex coming apart. Take “linear diUb-SUMO2 hybrid chain, wt/LPT-linked (from UniProt P0CG48 1-76; P0CG48 1-76) (complex)”: the dissociation constant (Kd) in experiment [2] came out at 1.2 µM.
